Ends that are not written are not given here.

The labels stand for the following.
T1: plasminogen fragment K4 (UniProt P00747 374-459)
T1 construct: range 354-439
T1 sequence (looked up): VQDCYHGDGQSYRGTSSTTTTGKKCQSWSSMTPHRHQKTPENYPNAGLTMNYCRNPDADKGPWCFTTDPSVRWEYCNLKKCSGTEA

B1: Plasminogen (ligand, UniProt P00747 20-810, looked up)
chain: EPLDDYVNTQGASLFSVTKKQLGAGSIEECAAKCEEDEEFTCRAFQYHSKEQQCVIMAENRKSSIIIRMRDVVLFEKKVYLSECKTGNGKNYRGTMSKTKNGITCQKWSSTSPHRPRFSPATHPSEGLEENYCRNPDNDPQGPWCYTTDPEKRYDYCDILECEEECMHCSGENYDGKISKTMSGLECQAWDSQSPHAHGYIPSKFPNKNLKKNYCRNPDRELRPWCFTTDPNKRWELCDIPRCTTPPPSSGPTYQCLKGTGENYRGNVAVTVSGHTCQHWSAQTPHTHNRTPENFPCKNLDENYCRNPDGKRAPWCHTTNSQVRWEYCKIPSCDSSPVSTEQLAPTAPPELTPVVQDCYHGDGQSYRGTSSTTTTGKKCQSWSSMTPHRHQKTPENYPNAGLTMNYCRNPDADKGPWCFTTDPSVRWEYCNLKKCSGTEASVVAPPPVVLLPDVETPSEEDCMFGNGKGYRGKRATTVTGTPCQDWAAQEPHRHSIFTPETNPRAGLEKNYCRNPDGDVGGPWCYTTNPRKLYDYCDVPQCAAPSFDCGKPQVEPKKCPGRVVGGCVAHPHSWPWQVSLRTRFGMHFCGGTLISPEWVLTAAHCLEKSPRPSSYKVILGAHQEVNLEPHVQEIEVSRLFLEPTRKDIALLKLSSPAVITDKVIPACLPSPNYVVADRTECFITGWGETQGTFGAGLLKEAQLPVIENKVCNRYEFLNGRVQSTELCAGHLAGGTDSCQGDSGGPLVCFEKDKYILQGVTSWGLGCARPNKPGVYVRVSRFVTWIEGVMRNN
modifications: directly biotinylated in the assays of Examples 7-9; coupled to Sepharose in Example 1
notes: The same entry is used for unlabelled, biotinylated and Sepharose-coupled plasminogen; also called Plg; biotinylated plasminogen
B2: Plg-RKT carboxyl-terminal peptide CEQSKLFSDK (SEQ ID NO: 33) (peptide)
peptide: CEQSKLFSDK
modifications: also: coupled to bovine serum albumin (BSA), attachment site not given here
notes: also called C-terminal peptide of mouse Plg-RKT; Plg-RKT polypeptide

Experiment [1] addresses B1. Kind of experiment: ELISA, detection control: plasminogen bound to BSA-coupled peptide, isotype control instead of anti-plasminogen MAb.
The target of experiment [2] is B2. Kind of experiment: ELISA on BSA-coupled peptide, anti-plasminogen MAb detection. The text has this: Our isolation method was consistent with exposure of the carboxyl-terminus of Plg-RKT (with its carboxyl-terminal lysine) on the cell surface and also with the ability of the carboxyl-terminal domain to bind to plasminogen. For verification, we tested whether a synthetic peptide, corresponding to the C-terminus of Plg-RKT could bind plasminogen. The peptide, […] (SEQ ID NO: 33) corresponding to the ten C-terminal amino acids of Plg-RKT with cysteine substituted for R₁₃₈) was coupled to bovine serum albumin (BSA) and then coated onto wells of microtiter plates at 10 μg/ml. The wells were blocked with 5% BSA. Plasminogen (0.2 μM) was incubated with the wells, followed by our anti-plasminogen MAb ³⁶ and detection with HRP-conjugated goat anti-mouse IgG (Biosource, Camarillo, Calif.). Plasminogen bound to the peptide in a concentration dependent manner with 50% maximal binding achieved at a plasminogen concentration of ˜10 nM. The binding was specific because it was blocked in the presence of epsilon-aminocaproic acid (EACA), consistent with the ability of EACA to inhibit plasminogen binding to differentiated Hoxa9-ER4 cells. […] In controls for the detection method, O.D.₄₉₀ values obtained using an isotype control antibody or in the absence of added plasminogen were <5% of the values for plasminogen binding to the BSA-coupled peptide detected with anti-plasminogen MAb.
For orientation: ELISA stands for enzyme-linked immunosorbent assay.

For experiment [3], the target named is B1. Kind of experiment: competition ELISA, soluble peptide against biotinylated plasminogen on immobilized …-BSA.
The target in a further experiment is T1, plasminogen fragment K4. Kind of experiment: competition ELISA against biotinylated plasminogen on immobilized peptide. The method, then: (§1) 9. Recognition of Plg-RKT by Plasminogen Fragments in Other Assays to Define the ligand recognition specificity of Plg-RKT for plasminogen. the Plg-RKT polypeptide, […] (SEQ ID NO: 33), was coupled to microtiter wells. Plasminogen was directly biotinylated and then incubated with the immobilized peptide and detected with streptavidin-HRP, as above. (Plasminogen bound to the peptide in a concentration-dependent manner. In controls for specificity, biotinylated-Plg binding was competed by unlabeled Plg and no biotinylated-Plg binding to the reverse peptide was detected.) Plasminogen domains containing disulfide bonded kringle (K) structures were obtained by elastase digestion as described ³⁹. (K1-3 is comprised of the plasminogen amino acid sequences, Tyr⁷⁹-Val³³⁷ or Tyr⁷⁹-Val³⁵³. K4 is contained within the plasminogen amino acid sequences, Val³⁵⁴-Ala⁴³⁹. K5-PD is contained within the plasminogen amino acid sequences, Val⁴⁴²-Asn⁷⁹⁰ and contains kringle 5 as well as the latent protease domain.)

Experiment [4] concerns the target T2, plasminogen fragment K1-3 (UniProt P00747 99-357).
T2 construct: range 79-337 or 79-353; it may not count on the precursor entry
The experiment is described as above. The method, then: as §1

For isotype control antibody (Example 4), the O.D.490 as percent of the value with anti-plasminogen MAb with Plasminogen [1] is < 5%.

A word on the EC50: it is the concentration that produces a half-maximal response. A low value points to a more potent agent. B1: the EC50 in experiment [2] is ~10 nM. In general, IC50 refers to the midpoint of a concentration-inhibition curve. A higher IC50 goes with weaker potency. In the experiment with Plasminogen [3], CEQSRFFIDK (also called wild type peptide) [peptide CEQSRFFIDK (SEQ ID NO: 34), corresponding to the C terminus of human Plg-RKT] yielded an IC50 of 1000 nM.

As to B2, the binding result (in the experiment with plasminogen fragment K4; in experiment [4]) was “binds” throughout.
